Test results published in article PMC11934185.

Columns and labels:
Assay in all cases: LC-MS of Fabs digested from co-expressed IgG
[1] = target: panitumumab heavy chain, CH1 design 1443, hole CH3 (human)
[2] = target: panitumumab heavy chain, CH1 design 1039, hole CH3 (human)
[3] = target: panitumumab heavy chain, CH1 of designs 1148 and 454 (L145S), hole CH3 (human)
[4] = target: panitumumab heavy chain, CH1 design 767, hole CH3 (human)
[5] = target: ustekinumab heavy chain, WT CH1, knob CH3 (human)
[6] = target: panitumumab heavy chain, CH1 design 367, hole CH3 (human)
[7] = target: panitumumab heavy chain, CH1 design 2529, hole CH3 (human)
[8] = target: panitumumab heavy chain, WT CH1, hole CH3 (human)
[9] = target: panitumumab heavy chain, CH1 of designs 1328 and 838 (G166K, T187K), hole CH3 (human)
[10] = target: ustekinumab heavy chain, CH1 design 1039, knob CH3 (human)

Row | % of observed Fabs (co-expressed: m3) [1] [%] | % of observed Fabs (co-expressed: m3) [2] [%] | % of observed Fabs (co-expressed: m34) [3] [%] | % of observed Fabs (co-expressed: m25) [4] [%] | % of observed Fabs (co-expressed: m7) [5] [%] | % of observed Fabs (co-expressed: m17) [5] [%] | % of observed Fabs (co-expressed: m21) [5] [%] | % of observed Fabs (co-expressed: m23) [5] [%] | % of observed Fabs (co-expressed: m25) [5] [%] | % of observed Fabs (co-expressed: m27) [5] [%] | % of observed Fabs (co-expressed: m30) [5] [%] | % of observed Fabs (co-expressed: m32) [5] [%] | % of observed Fabs (co-expressed: m36) [5] [%] | % of observed Fabs (co-expressed: m13) [6] [%] | % of observed Fabs (co-expressed: m11) [7] [%] | % of observed Fabs (co-expressed: m3) [8] [%] | % of observed Fabs (co-expressed: m17) [9] [%] | % of observed Fabs (co-expressed: m40) [10] [%] | % of observed Fabs (co-expressed: m3) [5] [%] | % of observed Fabs (co-expressed: m38) [8] [%] | Substance
1 | 8 | 10 | 10 | 10 | 50 | 50 | 41 | 45 | 41 | 40 | 40 | 41 | 45 | 8 | 18 | 8 | 6 |  |  |  | ustekinumab light chain, WT Cκ
2 |  |  |  |  |  |  |  |  |  |  |  |  |  |  |  | 41 |  | 18 | 21 | 54 | panitumumab light chain, WT Cκ
